# How the values were obtained:
# [1] = Pharmacokinetics in rat after intravenous administration, erythropoietin in blood by ELISA, non-compartmental analysis; assay type: in vivo; settings: SD rats
# Procedure: Pharmacokinetics were measured by a method of intravenously administrating PEG-EPO conjugates to SD rats (male, 7 weeks old, body weight of 243.53±14.33 g). Specifically, after the administration of 3 µg/kg of EPO, PEG-EPO-TS, or PEG-EPO-Mircera, after 0, 0.5, 1, 2, 4, 8, 24 (1 d), 48 (2 d), 96 (4 d), and 168 ([…]) hours, blood was collected from the rats with an SST tube, centrifuged at 6,000 rpm for 10 minutes at 4°C, and stored at -80°C until the concentration measurement. The concentration of erythropoietin in the blood was measured by ELISA.
# The pharmacokinetic analysis of the measured concentration results was performed by non-compartmental analysis (NCA), and the analysis was performed with the program of Phoenix WinNonlin 7.0 (Certara USA Inc., Princeton, NJ, USA). Individual NCA parameters were calculated.
# [2] = system: B6D2F1 mice; test: Pharmacodynamics in mice after intraperitoneal administration, CBC test; assay type: in vivo; settings: for RBC Increase (%) / Reticulocyte (×10^9/L) Increase (%): 7d vs 0d
# Procedure: Pharmacodynamics were measured by a method of intraperitoneally administrating the PEG-EPO conjugates to B6D2F1 mice (female, 7 weeks old, body weight of 20.02±0.88 g). Specifically, 1.25, 2.5, 5, or 20 µg/kg of EPO, PEG-EPO-TS, or PEG-EPO-Mircera drugs were administered, after 7 days, 200 to 300 µl of the blood was collected from the facial vein by using a lancet into a micro EDTA tube (MiniCollect, Greiner Bio One International GmbH), the shaker was used to sufficiently mix the EDTA to prevent coagulation, and then, the CBC test was performed by using the ADVIA 2120i (Siemens AG) equipment within one hour. The results are shown in Table 10 below with the comparison of CBC results before drug administration.
# [3] = i.p. 20 µg/kg, 0d (before drug administration)
substance,measurement,setting,value
"PEG-EPO-Mircera: commercially available pegylated EPO (Mircera, Roche Korea Co., Ltd.), comparative group [reference compound]",concentration of erythropoietin in the blood 0 h,"[1]; IV 3 µg/kg, 0 h",0
same,concentration of erythropoietin in the blood 0.5 h,"[1]; IV 3 µg/kg, 0.5 h",8.7
same,concentration of erythropoietin in the blood 1h,"[1]; IV 3 µg/kg, 1 h",7.6
same,concentration of erythropoietin in the blood 2h,"[1]; IV 3 µg/kg, 2 h",6.3
same,concentration of erythropoietin in the blood 4h,"[1]; IV 3 µg/kg, 4 h",6.8
same,concentration of erythropoietin in the blood 8h,"[1]; IV 3 µg/kg, 8 h",4.9
same,concentration of erythropoietin in the blood 24h,"[1]; IV 3 µg/kg, 24 h",3.6
same,concentration of erythropoietin in the blood 48h,"[1]; IV 3 µg/kg, 48 h",2.1
same,concentration of erythropoietin in the blood 96h,"[1]; IV 3 µg/kg, 96 h",0.7
same,concentration of erythropoietin in the blood 168h,"[1]; IV 3 µg/kg, 168 h",0.1
same,AUCinf,"[1]; IV 3 µg/kg, NCA, administration to infinity",288.60 ng·h/mL
same,AUClast,"[1]; IV 3 µg/kg, NCA, administration to last measured concentration",284.59 ng·h/mL
same,C1,"[1]; IV 3 µg/kg, NCA, clearance",1.8707 mL/min/kg
same,T1/2,"[1]; IV 3 µg/kg, NCA, half-life",27.83 h
same,C0,"[1]; IV 3 µg/kg, NCA, initial concentration",9.96 ng/mL
same,Cmax,"[1]; IV 3 µg/kg, NCA, maximal concentration",8.7 ng/mL
same,MRTlast,"[1]; IV 3 µg/kg, NCA, mean residence time to last measured concentration",36.87 h
same,AUC%Extrap (%),"[1]; IV 3 µg/kg, NCA, percentage of extrapolated area",1.39%
same,Tmax,"[1]; IV 3 µg/kg, NCA, time at maximal concentration",0.5 h
same,VZ,"[1]; IV 3 µg/kg, NCA, volume of distribution",4.50667 L/kg
same,Vss,"[1]; IV 3 µg/kg, NCA, volume of distribution at steady state",4.40632 L/kg
same,half-life,[1]; IV administration,27.8 h
same,Reticulocyte (×10^9/L) 0d,"[2]; i.p. 1.25 µg/kg, 0d (before drug administration)",228. 40 ×10^9/L
same,Reticulocyte (%) 7d,[2]; i.p. 1.25 µg/kg,4.78%
same,RBC Increase (%),[2]; i.p. 1.25 µg/kg,15.03%
same,Reticulocyte (×10^9/L) Increase (%),[2]; i.p. 1.25 µg/kg,98.51%
same,Reticulocyte (×10^9/L) 0d,"[2]; i.p. 2.5 µg/kg, 0d (before drug administration)",143. 50 ×10^9/L
same,RBC(×10^6/µl) 7d,[2]; i.p. 2.5 µg/kg,12. 16 ×10^6/µl
same,Reticulocyte (%) 7d,[2]; i.p. 2.5 µg/kg,4.05%
same,RBC Increase (%),[2]; i.p. 2.5 µg/kg,37.25%
same,Reticulocyte (×10^9/L) Increase (%),[2]; i.p. 2.5 µg/kg,242.79%
same,Reticulocyte (×10^9/L) 0d,"[2]; i.p. 5 µg/kg, 0d (before drug administration)",134. 10 ×10^9/L
same,RBC(×10^6/µl) 7d,[2]; i.p. 5 µg/kg,12. 01 ×10^6/µl
same,Reticulocyte (×10^9/L) 7d,[2]; i.p. 5 µg/kg,1548. 00 ×10^9/L
same,RBC Increase (%),[2]; i.p. 5 µg/kg,31.26%
same,RBC(×10^6/µl) 0d,[2]; [3],10. 43 ×10^6/µl
same,Reticulocyte (×10^9/L) 0d,[2]; [3],194. 70 ×10^9/L
same,RBC(×10^6/µl) 7d,[2]; i.p. 20 µg/kg,13. 55 ×10^6/µl
same,Reticulocyte (×10^9/L) 7d,[2]; i.p. 20 µg/kg,2347. 00 ×10^9/L
same,RBC Increase (%),[2]; i.p. 20 µg/kg,29.91%
